Data as given in paper PMC11250742, “Preclinical evaluation of CXCR4 peptides for targeted radionuclide therapy in glioblastoma” (EJNMMI Radiopharmacy and Chemistry, 2024).
pKd: −log10 of the molar value. Read-outs that look alike come from different tables or passages of the source. Where a SMILES comes first, the peptide text is derived from it. Bridges are numbered along the chain shown (N, C = ends). [ ]: non-standard residue; d: D form. The star is where a group is joined. DOTA = O=C(O)CN1CCN(CC(=O)O)CCN(CC(=O)*)CCN(CC(=O)O)CC1; 2Nal = N[C@@H](Cc1ccc2ccccc2c1)C(=O)O; Cit = NC(=O)NCCC[C@H](N)C(=O)O

Experiments:
CXCR4 = target: T1, CXCR4 (Homo sapiens, UniProt P61073); assay: In vitro autoradiography saturation binding on U87-CXCR4 + tumour slices; settings: sections of subcutaneous U87-CXCR4 + tumours; 0.1–1000 nM; NSB with 100 µM AMD11070; N = 3
T1 construct: expressed in transfected cells; host or cells: U87-MG (U87-CXCR4+), kept under blasticidin selection

[1] = Ex vivo biodistribution in U87-CXCR4 + tumour-bearing mice; parameters: species or system BALB/c nude mice; settings: mouse; for tissue to tissue ratio at 24 h / tissue uptake dose at 1 h / tissue uptake dose at 4 h / tissue uptake dose at 24 h / tissue uptake dose at 168 h / SUV at 1 h / SUV at 4 h / SUV at 24 h / SUV at 168 h: female, BALB/c nude, iv, 1.5 MBq, total radioactivity; for tissue uptake dose at 1 h / tissue uptake dose at 4 h / tissue uptake dose at 24 h / tissue uptake dose at 168 h: %IA
Method: For the generation of the subcutaneous GBM xenograft model, BALB/c nude mice (between 8 and 12 weeks old) were anesthetised with 2.5% isoflurane in O2 at a flow rate of 0.2 L/min and subcutaneously injected on the right shoulder with 3 × 10^6 U87-CXCR4 + cells resuspended in a 1:1 mixture of PBS and Cultrex BME (R&D Systems, Bio-Techne, Minnesota, US). Tumours were left to grow for ten days before the start of the experiment. Tumour volumes were calculated as length × width × height. Three days before the experiment, the mean tumour volumes of all mice were 255 ± 119 mm^3.
The pharmacokinetic profile of [^177Lu]Lu-POL3026 was evaluated in female BALB/c nude mice with subcutaneous xenografts of U87-CXCR4 + tumours.
All animals were anesthetised with 2.5% isoflurane in O2 at a flow rate of 1 L/min and intravenously (IV) injected with 1.5 MBq of [^177Lu]Lu-POL3026 via a tail vein (radiolabelled with a Am of 53.1 ± 0.55 MBq/nmol). The mice were sacrificed by an overdose of pentobarbital (200 µL of 60 mg/mL) at 1-, 4-, 24- and 168 h post-injection (p.i.) (n = 3–4 per time point), followed by cardiac puncture. Organs of interest were collected in tarred tubes and weighed. The activity in the different organs was measured in the automated gamma counter described above. For the calculation of the total activity in the blood, bone, and muscle, the masses were assumed to be 7, 12 and 40% of the total body mass, respectively. Data is shown as standardised uptake value (SUV), calculated using the following equation:
SUV = [Activity in organ (cpm) / Organ weight (g)] / [(Injected activity (cpm) / Total body weight (g)].

T1 sequence (P61073 whole entry): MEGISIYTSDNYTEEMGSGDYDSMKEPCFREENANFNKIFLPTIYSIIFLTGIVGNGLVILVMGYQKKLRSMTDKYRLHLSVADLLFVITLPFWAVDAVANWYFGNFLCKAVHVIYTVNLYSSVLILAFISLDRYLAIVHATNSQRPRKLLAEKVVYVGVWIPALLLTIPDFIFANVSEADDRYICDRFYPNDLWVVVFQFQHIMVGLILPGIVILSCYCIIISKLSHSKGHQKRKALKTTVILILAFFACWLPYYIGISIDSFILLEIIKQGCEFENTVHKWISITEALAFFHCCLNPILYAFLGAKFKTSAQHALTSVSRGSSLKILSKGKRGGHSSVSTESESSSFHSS

`N=C(N)NCCC[C@@H]1NC(=O)[C@@H]2CSSC[C@H](NC(=O)[C@H](Cc3ccc4ccccc4c3)NC(=O)[C@H](CCCNC(=N)N)NC(=O)[C@H](CCCNC(=N)N)NC(=O)[C@H]3CCCN3C(=O)CNC1=O)C(=O)N[C@@H](Cc1ccc(O)cc1)C(=O)N[C@@H](CCC(N)=O)C(=O)N[C@@H](CCCCNC(=O)CN1CCN(CC(=O)O)CCN(CC(=O)O)CCN(CC(=O)O)CC1)C(=O)N1CCC[C@@H]1C(=O)N1CCC[C@H]1C(=O)N[C@@H](Cc1ccc(O)cc1)C(=O)N[C@@H](CCCNC(=N)N)C(=O)N[C@@H](CCCNC(N)=O)C(=O)N2` [[^177Lu]Lu-DOTA-POL3026, metal not drawn] (cyclo(RR[2Nal]CYQK(DOTA)[dP]PYR[Cit]CRG[dP]); disulfide 4-13) gave a pKd (CXCR4) of 7.28, a tissue to tissue ratio at 24 h ([1]; 24 h p.i., read-out: tumour-to-kidney ratio) of 0.7 and a tissue uptake dose at 1 h ([1]; Blood) of 15.2 %ID. It also gave a tissue uptake dose at 4 h ([1]; Blood) of 3.73 %ID, a tissue uptake dose at 24 h ([1]; Blood) of 0.14 %ID and a tissue uptake dose at 168 h ([1]; Blood) of 0.04 %ID. The tissue uptake dose at 1 h ([1]; Blood on tissue paper) was 3.79 %ID, the tissue uptake dose at 4 h ([1]; Blood on tissue paper) was 1.56 %ID and the tissue uptake dose at 24 h ([1]; Blood on tissue paper) was 0.51 %ID. The tissue uptake dose at 168 h ([1]; Blood on tissue paper) was 0.2 %ID, the tissue uptake dose at 1 h ([1]; Bone) was 8.81 %ID and the tissue uptake dose at 4 h ([1]; Bone) was 14.4 %ID. It also gave a tissue uptake dose at 24 h ([1]; Bone) of 7.05 %ID, a tissue uptake dose at 168 h ([1]; Bone) of 2.14 %ID and a tissue uptake dose at 1 h ([1]; Brain) of 0.09 %ID. For the same compound, the tissue uptake dose at 4 h ([1]; Brain) was 0.03 %ID, the tissue uptake dose at 24 h ([1]; Brain) was 0.01 %ID and the tissue uptake dose at 1 h ([1]; Carcass) was 28.5 %ID. The tissue uptake dose at 4 h ([1]; Carcass) was 18.3 %ID, the tissue uptake dose at 24 h ([1]; Carcass) was 12.8 %ID and the tissue uptake dose at 168 h ([1]; Carcass) was 3.02 %ID. The tissue uptake dose at 1 h ([1]; Heart) was 0.71 %ID, the tissue uptake dose at 4 h ([1]; Heart) was 0.22 %ID and the tissue uptake dose at 24 h ([1]; Heart) was 0.09 %ID. For the same compound, the tissue uptake dose at 168 h ([1]; Heart) was 0.01 %ID, the tissue uptake dose at 1 h ([1]; Intestines) was 5.63 %ID and the tissue uptake dose at 4 h ([1]; Intestines) was 3.76 %ID. It also gave a tissue uptake dose at 24 h ([1]; Intestines) of 2.14 %ID, a tissue uptake dose at 168 h ([1]; Intestines) of 0.59 %ID and a tissue uptake dose at 1 h ([1]; Kidneys) of 4.03 %ID. For the same compound, the tissue uptake dose at 4 h ([1]; Kidneys) was 4.99 %ID, the tissue uptake dose at 24 h ([1]; Kidneys) was 3.65 %ID and the tissue uptake dose at 168 h ([1]; Kidneys) was 0.61 %ID. The tissue uptake dose at 1 h ([1]; Liver) was 31.6 %ID, the tissue uptake dose at 4 h ([1]; Liver) was 39.8 %ID and the tissue uptake dose at 24 h ([1]; Liver) was 39.2 %ID. For the same compound, the tissue uptake dose at 168 h ([1]; Liver) was 14.2 %ID, the tissue uptake dose at 1 h ([1]; Lungs) was 2.72 %ID and the tissue uptake dose at 4 h ([1]; Lungs) was 1.87 %ID. It also gave a tissue uptake dose at 24 h ([1]; Lungs) of 0.59 %ID, a tissue uptake dose at 168 h ([1]; Lungs) of 0.06 %ID and a tissue uptake dose at 1 h ([1]; Muscle) of 9.87 %ID. For the same compound, the tissue uptake dose at 4 h ([1]; Muscle) was 4.89 %ID, the tissue uptake dose at 24 h ([1]; Muscle) was 3.78 %ID and the tissue uptake dose at 168 h ([1]; Muscle) was 0.57 %ID. For the same compound, the tissue uptake dose at 1 h ([1]; Pancreas) was 0.3 %ID, the tissue uptake dose at 4 h ([1]; Pancreas) was 0.16 %ID and the tissue uptake dose at 24 h ([1]; Pancreas) was 0.1 %ID. The tissue uptake dose at 168 h ([1]; Pancreas) was 0.02 %ID, the tissue uptake dose at 1 h ([1]; Spleen) was 4.01 %ID and the tissue uptake dose at 4 h ([1]; Spleen) was 2.02 %ID. The tissue uptake dose at 24 h ([1]; Spleen) was 1.61 %ID, the tissue uptake dose at 168 h ([1]; Spleen) was 0.72 %ID and the tissue uptake dose at 1 h ([1]; Stomach) was 0.35 %ID. The tissue uptake dose at 4 h ([1]; Stomach) was 0.31 %ID, the tissue uptake dose at 24 h ([1]; Stomach) was 0.17 %ID and the tissue uptake dose at 168 h ([1]; Stomach) was 0.03 %ID. It also gave a tissue uptake dose at 1 h ([1]; Tail) of 2.05 %ID, a tissue uptake dose at 4 h ([1]; Tail) of 1.75 %ID and a tissue uptake dose at 24 h ([1]; Tail) of 1.7 %ID. For the same compound, the tissue uptake dose at 168 h ([1]; Tail) was 0.53 %ID, the tissue uptake dose at 1 h ([1]; Tumour) was 1.54 %ID and the tissue uptake dose at 4 h ([1]; Tumour) was 1.01 %ID. The tissue uptake dose at 24 h ([1]; Tumour) was 1.46 %ID, the tissue uptake dose at 168 h ([1]; Tumour) was 0.29 %ID and the SUV at 1 h ([1]; Blood) was 2.17 SUV. The SUV at 4 h ([1]; Blood) was 0.53 SUV, the SUV at 24 h ([1]; Blood) was 0.02 SUV and the SUV at 1 h ([1]; Bone) was 0.73 SUV. It also gave an SUV at 4 h ([1]; Bone) of 1.2 SUV, an SUV at 24 h ([1]; Bone) of 0.59 SUV and an SUV at 168 h ([1]; Bone) of 0.18 SUV. It also gave an SUV at 1 h ([1]; Brain) of 0.05 SUV, an SUV at 4 h ([1]; Brain) of 0.02 SUV and an SUV at 24 h ([1]; Brain) of 0.01 SUV. The SUV at 1 h ([1]; Heart) was 1.33 SUV, the SUV at 4 h ([1]; Heart) was 0.46 SUV and the SUV at 24 h ([1]; Heart) was 0.17 SUV. The SUV at 168 h ([1]; Heart) was 0.02 SUV, the SUV at 1 h ([1]; Kidneys) was 2.57 SUV and the SUV at 4 h ([1]; Kidneys) was 3.34 SUV. For the same compound, the SUV at 24 h ([1]; Kidneys) was 2.41 SUV, the SUV at 168 h ([1]; Kidneys) was 0.38 SUV and the SUV at 1 h ([1]; Liver) was 5.27 SUV. It also gave an SUV at 4 h ([1]; Liver) of 7.32 SUV, an SUV at 24 h ([1]; Liver) of 6.46 SUV and an SUV at 168 h ([1]; Liver) of 2.3 SUV. It also gave an SUV at 1 h ([1]; Lungs) of 4.74 SUV, an SUV at 4 h ([1]; Lungs) of 3.24 SUV and an SUV at 24 h ([1]; Lungs) of 1.02 SUV. For the same compound, the SUV at 168 h ([1]; Lungs) was 0.08 SUV, the SUV at 1 h ([1]; Muscle) was 0.25 SUV and the SUV at 4 h ([1]; Muscle) was 0.12 SUV. It also gave an SUV at 24 h ([1]; Muscle) of 0.09 SUV, an SUV at 168 h ([1]; Muscle) of 0.01 SUV and an SUV at 1 h ([1]; Pancreas) of 0.3 SUV. The SUV at 4 h ([1]; Pancreas) was 0.19 SUV, the SUV at 24 h ([1]; Pancreas) was 0.13 SUV and the SUV at 168 h ([1]; Pancreas) was 0.02 SUV. It also gave an SUV at 1 h ([1]; Spleen) of 8.67 SUV, an SUV at 4 h ([1]; Spleen) of 6.77 SUV and an SUV at 24 h ([1]; Spleen) of 4.83 SUV. For the same compound, the SUV at 168 h ([1]; Spleen) was 1.84 SUV, the SUV at 1 h ([1]; Tumour) was 1.39 SUV and the SUV at 4 h ([1]; Tumour) was 1.74 SUV. For the same compound, the SUV at 24 h ([1]; Tumour) was 1.79 SUV, the SUV at 168 h ([1]; Tumour) was 0.32 SUV and the tissue to tissue ratio at 24 h ([1]; tumour-to-blood ratio) was 89. The tissue to tissue ratio at 24 h ([1]; tumour-to-liver ratio) was 0.3, the tissue to tissue ratio at 24 h ([1]; tumour-to-muscle ratio) was 19 and the “%IA, Brain” value [1] was 0.00 %IA. The “SUV, Blood” value [1] was 0.00, the “SUV, Brain” value [1] was 0.00 and the “SUV, Tumour” value [1] was 1.9.
